From paper doi:10.1101/2021.06.25.449899 (bioRxiv, 2021)

Target: the molecule itself
Experiment: SEC-MALS

B1: Mycobacterium tuberculosis transcription termination factor Rho, wild type (enzyme)
chain: TDTDLITAGESTDGKPSDAAATDPPDLNADEPAGSLATMVLPELRALANRAGVKGTSGMRKNELIAAIEEIRRQANGAPAVDRSAQEHDKGDRPPSSEAPATQGEQTPTEQIDSQSQQVRPERRSATREAGPSGSGERAGTAADDTDNRQGGQQDAKTEERGTDAGGDQGGDQQASGGQQARGDEDGEARQGRRGRRFRDRRRRGERSGDGAEAELREDDVVQPVAGILDVLDNYAFVRTSGYLPGPHDVYVSMNMVRKNGMRRGDAVTGAVRVPKEGEQPNQRQKFNPLVRLDSINGGSVEDAKKRPEFGKLTPLYPNQRLRLETSTERLTTRVIDLIMPIGKGQRALIVSPPKAGKTTILQDIANAITRNNPECHLMVVLVDERPEEVTDMQRSVKGEVIASTFDRPPSDHTSVAELAIERAKRLVEQGKDVVVLLDSITRLGRAYNNASPASGRILSGGVDSTALYPPKRFLGAARNIEEGGSLTIIATAMVETGSTGDTVIFEEFKGTGNAELKLDRKIAERRVFPAVDVNPSGTRKDELLLSPDEFAIVHKLRRVLSGLDSHQAIDLLMSQLRKTKNNYEFLVQVSKTTPGSMDSD
- stoichiometry N: 6
